The target in this assay is T1, human TNFR2-Fc fusion protein (human, UniProt P20333 23-257).
T1 construct: not shown: Fc part
T1 sequence (looked up): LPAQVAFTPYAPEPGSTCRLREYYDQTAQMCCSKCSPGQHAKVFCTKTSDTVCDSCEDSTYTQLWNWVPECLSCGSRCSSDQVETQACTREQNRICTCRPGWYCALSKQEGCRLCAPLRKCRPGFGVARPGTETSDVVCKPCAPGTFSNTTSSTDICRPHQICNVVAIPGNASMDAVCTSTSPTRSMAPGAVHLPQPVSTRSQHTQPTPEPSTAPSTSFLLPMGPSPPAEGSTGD
In words: selection from a phage display scFv library on human TNFR2-Fc.

B1: human TNFR2-specific monoclonal antibody E4 (antibody, V domains shown)
VH: QITLKESGPTLVKPTQTLTLTCTFSGFSLTTSGVGVGWIRQPPGKALEWLALIYWDDDKRYSPSLKSRLTITKDTSKNQVVLTMTNMDPVDTATYYCAHLDGSGSLDYWGQGTLVTVSS
VL: QSVLTQPPSASGTPGQRVTISCSGSTSNIGRNSVNWYSHLPGAAPKLLISGNDQRPSGVPDRFSGSKSDNTASLTVSGLQAEDEAHYYCSSSAANLGVFGGGTKLTVLG
With B1, the binding result is recorded as “binds”.

(Values after patent publication US20200230173A1 (US Dept. of Health and Human Services, published 2020).)
